Assay results taken from paper PMC11009412, “Pathogenic mutations of human phosphorylation sites affect protein–protein interactions” (Nature Communications, 2024).

Key:
GRB2 = GRB2 (UniProt P62993); experiment: PRISMA peptide-membrane pull-down, SILAC MS; details: reference: unphosphorylated wild-type peptide; sites Y1092
STAT3 = STAT3 (UniProt P40763); experiment: PRISMA peptide-membrane pull-down, SILAC MS; details: reference: unphosphorylated wild-type peptide; sites Y1092
PLCG1 = PLCG1 (UniProt P19174); experiment: PRISMA peptide-membrane pull-down, SILAC MS; details: reference: unphosphorylated wild-type peptide; sites Y1092
14-3-3 theta (YWHAQ) = 14-3-3 theta (YWHAQ) (UniProt P27348); experiment: PRISMA alanine-scan pull-down, LFQ MS; details: reference: unphosphorylated wild-type peptide; sites S102
14-3-3 gamma = 14-3-3 gamma (UniProt P61981); experiment: PRISMA alanine-scan pull-down, LFQ MS; details: reference: unphosphorylated wild-type peptide; sites S102
14-3-3 epsilon (YWHAE) [1] = target: 14-3-3 epsilon (YWHAE) (UniProt P62258); experiment: PRISMA alanine-scan pull-down, LFQ MS; details: reference: unphosphorylated wild-type peptide; sites S102
14-3-3 zeta (YWHAZ) = 14-3-3 zeta (YWHAZ) (UniProt P63104); experiment: PRISMA alanine-scan pull-down, LFQ MS; details: reference: unphosphorylated wild-type peptide; sites S102
[2] = target: 14-3-3 beta/alpha (YWHAB) (UniProt P31946); experiment: PRISMA alanine-scan pull-down, LFQ MS; details: reference: unphosphorylated wild-type peptide; sites S102
14-3-3 eta (YWHAH) = 14-3-3 eta (YWHAH) (UniProt Q04917); experiment: PRISMA alanine-scan pull-down, LFQ MS; details: reference: unphosphorylated wild-type peptide; sites S102
14-3-3 epsilon (YWHAE) [3] = target: 14-3-3 epsilon (YWHAE) (UniProt P62258); experiment: ITC; PEAQ-ITC, 18 °C, 400 µM peptide in the syringe, 25 µM 14-3-3ε in the reaction chamber; 20 mM HEPES pH 7.0, 150 mM NaCl, 2 mM DTT

For “EGFR (from UniProt P00533) pTyr1092 peptide”, the other: SILAC ratio phos/wt (GRB2) was greater than 20, the “binding against the reference” value (STAT3) was “stronger” and the “binding against the reference” value (PLCG1) was “stronger”.
In the case of “GATAD1 (from UniProt Q8WUU5) pS102 peptide”, the “binding against the reference” value (14-3-3 theta (YWHAQ)) is reported as “stronger”, the “binding against the reference” value (14-3-3 gamma) is reported as “stronger” and the “binding against the reference” value (14-3-3 epsilon (YWHAE) [1]) is reported as “stronger”. For the same substance, the “binding against the reference” value (14-3-3 zeta (YWHAZ)) was “stronger”, the “binding against the reference” value [2] was “stronger” and the “binding against the reference” value (14-3-3 eta (YWHAH)) was “stronger”.
In the case of “GATAD1 phosphopeptide 95-LRNTKYKpSAPAAEKK-109”, the Kd (14-3-3 epsilon (YWHAE) [3]) is reported as 3.4 µM.
